{"source": "paper PMC9482650", "about": "“Quantitative fragmentomics allow affinity mapping of interactomes” (Nature Communications, 2022)", "assay_in_all_cases": "holdup assay", "design_in_all_cases": "key: below the threshold = too weak to quantify, mostly under pKd 3.1 to 4", "settings_in_all_cases": "plain residues with an end cap or a label only (N-terminal biotin on a linker: ahx)", "key": {"[1]": {"target": "T1, SYNJ2BP, P57105", "T1 sequence (P57105 8-110, limits assumed, looked up)": "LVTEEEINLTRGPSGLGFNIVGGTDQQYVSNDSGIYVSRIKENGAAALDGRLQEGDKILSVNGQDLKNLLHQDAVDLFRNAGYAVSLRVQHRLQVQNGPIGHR"}, "[2]": {"target": "MAGI3_2, Q5TCQ9", "sequence (Q5TCQ9 398-503)": "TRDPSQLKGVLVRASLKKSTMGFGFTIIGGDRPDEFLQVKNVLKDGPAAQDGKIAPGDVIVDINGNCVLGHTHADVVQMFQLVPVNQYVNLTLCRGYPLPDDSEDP"}, "[3]": {"target": "PARD3_3, Q8TEW0", "sequence (Q8TEW0 582-685)": "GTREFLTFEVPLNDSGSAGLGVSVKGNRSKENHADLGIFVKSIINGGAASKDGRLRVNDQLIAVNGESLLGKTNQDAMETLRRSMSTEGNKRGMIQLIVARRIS"}, "[4]": {"target": "LNX1_2, Q8TBB1", "sequence (Q8TBB1 371-470)": "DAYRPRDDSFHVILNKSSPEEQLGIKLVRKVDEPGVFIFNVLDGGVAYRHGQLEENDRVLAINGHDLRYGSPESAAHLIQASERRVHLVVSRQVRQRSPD"}, "[5]": {"target": "PTPN3, P26045", "sequence (P26045 505-587)": "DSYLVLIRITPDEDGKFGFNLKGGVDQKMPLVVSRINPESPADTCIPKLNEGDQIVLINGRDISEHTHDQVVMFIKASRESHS"}, "[6]": {"target": "T2, APBA3_1, O96018", "T2 sequence (O96018 389-490, limits assumed, looked up)": "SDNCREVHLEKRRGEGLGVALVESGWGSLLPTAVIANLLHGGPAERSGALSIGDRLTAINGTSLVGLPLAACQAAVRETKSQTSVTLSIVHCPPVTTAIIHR"}, "[7]": {"target": "T3, PDZD2_2, O15018", "T3 sequence (O15018 329-429, limits assumed, looked up)": "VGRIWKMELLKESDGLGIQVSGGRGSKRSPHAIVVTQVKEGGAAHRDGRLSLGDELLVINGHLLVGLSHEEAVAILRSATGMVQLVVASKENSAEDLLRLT"}, "[8]": {"target": "SCRIB_1, Q14160", "sequence (Q14160 718-814)": "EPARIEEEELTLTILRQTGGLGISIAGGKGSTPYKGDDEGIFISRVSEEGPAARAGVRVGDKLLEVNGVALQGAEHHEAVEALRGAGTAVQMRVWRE"}, "[9]": {"target": "FRMPD3, Q5JV73", "sequence (Q5JV73 12-100)": "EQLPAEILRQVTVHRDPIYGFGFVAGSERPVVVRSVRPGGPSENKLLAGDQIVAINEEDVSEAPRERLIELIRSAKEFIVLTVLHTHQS"}, "[10]": {"target": "T4, GRIP1_4, Q9Y3R0", "T4 sequence (Q9Y3R0 467-571, limits assumed, looked up)": "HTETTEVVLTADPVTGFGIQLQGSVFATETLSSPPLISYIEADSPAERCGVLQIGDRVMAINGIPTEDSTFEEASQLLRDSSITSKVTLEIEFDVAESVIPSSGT"}, "[11]": {"target": "T5, LRRC7, Q96NW7", "T5 sequence (Q96NW7 1440-1537, limits assumed, looked up)": "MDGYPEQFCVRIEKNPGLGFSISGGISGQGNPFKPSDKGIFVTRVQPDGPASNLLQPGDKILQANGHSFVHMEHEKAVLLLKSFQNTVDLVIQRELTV"}, "[12]": {"target": "DLG4_2, P78352", "sequence (P78352 155-259)": "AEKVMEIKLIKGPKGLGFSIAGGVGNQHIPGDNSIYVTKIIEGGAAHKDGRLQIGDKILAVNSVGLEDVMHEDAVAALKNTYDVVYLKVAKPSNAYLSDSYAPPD"}, "[13]": {"target": "NHERF4_4, Q86UT5", "sequence (Q86UT5 464-550)": "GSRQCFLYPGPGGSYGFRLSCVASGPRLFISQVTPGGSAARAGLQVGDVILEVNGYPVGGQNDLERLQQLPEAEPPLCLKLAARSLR"}, "[14]": {"target": "IL16_1, Q14005", "sequence (Q14005 210-306)": "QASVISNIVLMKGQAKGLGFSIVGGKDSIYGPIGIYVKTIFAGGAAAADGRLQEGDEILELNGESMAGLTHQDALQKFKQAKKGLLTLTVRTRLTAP"}, "[15]": {"target": "T6, DFNB31_1, Q9P202", "T6 sequence (Q9P202 135-233, limits assumed, looked up)": "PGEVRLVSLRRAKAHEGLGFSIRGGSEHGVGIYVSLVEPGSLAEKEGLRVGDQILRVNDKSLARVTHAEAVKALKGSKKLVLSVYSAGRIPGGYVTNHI"}, "[16]": {"target": "IL16_4, Q14005", "sequence (Q14005 1229-1329)": "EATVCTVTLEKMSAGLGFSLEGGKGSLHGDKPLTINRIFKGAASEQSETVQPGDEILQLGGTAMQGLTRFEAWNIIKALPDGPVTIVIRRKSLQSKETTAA"}, "[17]": {"target": "GRID2IP_2, A4D2P6", "sequence (A4D2P6 272-370)": "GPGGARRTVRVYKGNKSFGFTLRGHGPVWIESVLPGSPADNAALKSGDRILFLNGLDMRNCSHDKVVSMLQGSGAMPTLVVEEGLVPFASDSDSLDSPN"}, "[18]": {"target": "GRIP2_4, Q9C0E4", "sequence (Q9C0E4 446-548)": "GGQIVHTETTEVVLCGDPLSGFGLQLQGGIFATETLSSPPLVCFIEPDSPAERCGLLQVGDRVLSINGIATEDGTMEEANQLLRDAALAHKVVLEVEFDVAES"}, "[19]": {"target": "SNX27, Q96L92"}, "[20]": {"target": "T7, HTRA3, P83110", "T7 sequence (P83110 354-453, limits assumed, looked up)": "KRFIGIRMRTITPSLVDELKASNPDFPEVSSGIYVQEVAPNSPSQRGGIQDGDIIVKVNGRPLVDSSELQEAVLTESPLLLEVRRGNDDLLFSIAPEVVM"}, "[21]": {"target": "T8, DLG3_1, Q92796", "T8 sequence (Q92796 125-227, limits assumed, looked up)": "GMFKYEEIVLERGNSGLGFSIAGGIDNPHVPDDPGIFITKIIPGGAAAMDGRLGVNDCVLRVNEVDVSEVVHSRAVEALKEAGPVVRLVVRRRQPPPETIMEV"}, "[22]": {"target": "MAGI1_1, Q96QZ7", "sequence (Q96QZ7 1-106)": "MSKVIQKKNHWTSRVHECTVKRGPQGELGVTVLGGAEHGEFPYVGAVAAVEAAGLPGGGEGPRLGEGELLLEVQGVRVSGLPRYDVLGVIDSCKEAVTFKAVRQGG"}, "[23]": {"target": "T9, ARHGEF11, O15085", "T9 sequence (O15085 42-136, limits assumed, looked up)": "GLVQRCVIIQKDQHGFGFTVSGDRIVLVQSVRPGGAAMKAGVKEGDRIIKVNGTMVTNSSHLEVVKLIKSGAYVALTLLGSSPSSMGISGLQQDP"}, "[24]": {"target": "T10, LNX2_3, Q8N448", "T10 sequence (Q8N448 463-564, limits assumed, looked up)": "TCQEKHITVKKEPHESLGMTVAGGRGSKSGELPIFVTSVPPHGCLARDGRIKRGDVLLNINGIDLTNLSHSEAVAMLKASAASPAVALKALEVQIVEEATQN"}, "[25]": {"target": "MAST2, Q6P0Q8", "sequence (Q6P0Q8 1099-1202)": "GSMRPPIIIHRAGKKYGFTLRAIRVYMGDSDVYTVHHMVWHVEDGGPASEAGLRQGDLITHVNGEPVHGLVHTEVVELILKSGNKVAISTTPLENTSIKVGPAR"}, "[26]": {"target": "GRIP2_6, Q9C0E4", "sequence (Q9C0E4 648-740)": "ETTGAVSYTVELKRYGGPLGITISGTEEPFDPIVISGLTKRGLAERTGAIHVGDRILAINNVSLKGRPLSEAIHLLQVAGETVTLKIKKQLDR"}, "[27]": {"target": "TJP2_1, Q9UDY2", "sequence (Q9UDY2 24-128)": "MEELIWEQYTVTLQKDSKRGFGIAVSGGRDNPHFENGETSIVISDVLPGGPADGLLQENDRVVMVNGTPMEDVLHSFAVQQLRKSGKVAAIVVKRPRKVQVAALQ"}}}
{"binder": "RNCSTNDSLL", "note": "[ADRB2, P07550]", "values": [{"measurement": "pKd", "setting": "[1]", "value": "below the threshold"}, {"measurement": "pKd", "setting": "[2]", "value": "below the threshold"}, {"measurement": "pKd", "setting": "[3]", "value": 3.79}, {"measurement": "pKd", "setting": "[4]", "value": "below the threshold"}, {"measurement": "pKd", "setting": "[5]", "value": 3.53}, {"measurement": "pKd", "setting": "[6]", "value": "below the threshold"}, {"measurement": "pKd", "setting": "[7]", "value": "below the threshold"}, {"measurement": "pKd", "setting": "[8]", "value": 3.58}, {"measurement": "pKd", "setting": "[9]", "value": "below the threshold"}, {"measurement": "pKd", "setting": "[10]", "value": "below the threshold"}, {"measurement": "pKd", "setting": "[11]", "value": "below the threshold"}, {"measurement": "pKd", "setting": "[12]", "value": "below the threshold"}, {"measurement": "pKd", "setting": "[13]", "value": "below the threshold"}, {"measurement": "pKd", "setting": "[14]", "value": "below the threshold"}, {"measurement": "pKd", "setting": "[15]", "value": "below the threshold"}, {"measurement": "pKd", "setting": "[16]", "value": "below the threshold"}, {"measurement": "pKd", "setting": "[17]", "value": "below the threshold"}, {"measurement": "pKd", "setting": "[18]", "value": "below the threshold"}, {"measurement": "pKd", "setting": "[19]", "value": 3.6}, {"measurement": "pKd", "setting": "[20]", "value": "below the threshold"}, {"measurement": "pKd", "setting": "[21]", "value": "below the threshold"}, {"measurement": "pKd", "setting": "[22]", "value": "below the threshold"}, {"measurement": "pKd", "setting": "[23]", "value": "below the threshold"}, {"measurement": "pKd", "setting": "[24]", "value": "below the threshold"}, {"measurement": "pKd", "setting": "[25]", "value": 4.08}, {"measurement": "pKd", "setting": "[26]", "value": "below the threshold"}, {"measurement": "pKd", "setting": "[27]", "value": "below the threshold"}]}
{"binder": "SSSNSEDTEM", "note": "[NHERF3, Q5T2W1]", "values": [{"measurement": "pKd", "setting": "[1]", "value": "below the threshold"}, {"measurement": "pKd", "setting": "[2]", "value": "below the threshold"}, {"measurement": "pKd", "setting": "[3]", "value": "below the threshold"}, {"measurement": "pKd", "setting": "[4]", "value": "below the threshold"}, {"measurement": "pKd", "setting": "[5]", "value": 3.64}, {"measurement": "pKd", "setting": "[6]", "value": "below the threshold"}, {"measurement": "pKd", "setting": "[7]", "value": "below the threshold"}, {"measurement": "pKd", "setting": "[8]", "value": "below the threshold"}, {"measurement": "pKd", "setting": "[9]", "value": "below the threshold"}, {"measurement": "pKd", "setting": "[10]", "value": "below the threshold"}, {"measurement": "pKd", "setting": "[11]", "value": "below the threshold"}, {"measurement": "pKd", "setting": "[12]", "value": "below the threshold"}, {"measurement": "pKd", "setting": "[13]", "value": "below the threshold"}, {"measurement": "pKd", "setting": "[14]", "value": "below the threshold"}, {"measurement": "pKd", "setting": "[15]", "value": "below the threshold"}, {"measurement": "pKd", "setting": "[16]", "value": "below the threshold"}, {"measurement": "pKd", "setting": "[17]", "value": "below the threshold"}, {"measurement": "pKd", "setting": "[18]", "value": "below the threshold"}, {"measurement": "pKd", "setting": "[19]", "value": 4.16}, {"measurement": "pKd", "setting": "[20]", "value": "below the threshold"}, {"measurement": "pKd", "setting": "[21]", "value": "below the threshold"}, {"measurement": "pKd", "setting": "[22]", "value": "below the threshold"}, {"measurement": "pKd", "setting": "[23]", "value": "below the threshold"}, {"measurement": "pKd", "setting": "[24]", "value": "below the threshold"}, {"measurement": "pKd", "setting": "[25]", "value": 4.5}, {"measurement": "pKd", "setting": "[26]", "value": "below the threshold"}, {"measurement": "pKd", "setting": "[27]", "value": "below the threshold"}]}
